Measured values taken from patent publication US20220289816A1, “IMMUNOTHERAPY WITH B*07 RESTRICTED PEPTIDES AND COMBINATION OF PEPTIDES AGAINST CANCERS AND RELATED METHODS” (Immatics Biotechnologies GmbH, priority 2018, published 2022).

Molecular target: HLA-B*07 (Homo sapiens, UniProt P01889)
Assay: MHC binding assay (UV-ligand exchange, ELISA of stabilized MHC complexes)
Settings: peptide exchange yield on HLA-B*07, UV-ligand exchange
In short: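 Binding is reported as exchange yield: an ELISA with HRP-conjugated anti-β2m (A450, TMB) quantified how much test peptide stabilized MHC after UV cleavage of a photolabile placeholder peptide. Exchange monomers were diluted 100-fold and captured on streptavidin-coated plates for 1 h at 37 °C.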

| Substance | Peptide exchange |
| --- | --- |
| 225 (SPIIHSIL; listed as Homo sapiens) [compound 225] | +++ (>50 = +++) |
| 77 (QPRLVPGETL; listed as Homo sapiens) [compound 77] | ++++ (>75% = ++++) |
| 215 (IPVAIKEL; listed as Homo sapiens) [compound 215] | ++ (>20% = ++) |
| 60 (RPYSIYPHGVTF; listed as Homo sapiens) [compound 60] | ++++ (>75% = ++++) |
| 183 (VPRRPARAL; listed as Homo sapiens) [compound 183] | +++ (>50 = +++) |
| 32 (APMAPGRSPL; listed as Homo sapiens) [compound 32] | ++++ (>75% = ++++) |
| 87 (APVGGNVTSSF; listed as Homo sapiens) [compound 87] | +++ (>50 = +++) |
| 43 (APTPRPKVL; listed as Homo sapiens) [compound 43] | ++++ (>75% = ++++) |
| 177 (VWEPQGSSRSL; listed as Homo sapiens) [compound 177] | +++ (>50 = +++) |
| 185 (RPVLTASSF; listed as Homo sapiens) [compound 185] | ++++ (>75% = ++++) |
| 192 (IPFADVKSF; listed as Homo sapiens) [compound 192] | ++ (>20% = ++) |
| 84 (MPMQDIKMI; listed as Homo sapiens) [compound 84] | +++ (>50 = +++) |
| 69 (RPEDGRPRL; listed as Homo sapiens) [compound 69] | +++ (>50 = +++) |
| 151 (QPTWNTQTRL; listed as Homo sapiens) [compound 151] | ++++ (>75% = ++++) |
| 31 (RPGPSDPAA; listed as Homo sapiens) [compound 31] | +++ (>50 = +++) |
| 160 (IPVSHPVLTF; listed as Homo sapiens) [compound 160] | ++ (>20% = ++) |
| 105 (RPRYETGVCA; listed as Homo sapiens) [compound 105] | ++++ (>75% = ++++) |

| Substance | Peptide exchange |
| --- | --- |
| 165 (RPSKEMQVTI; listed as Homo sapiens) [compound 165] | ++++ (>75% = ++++) |
| 146 (SPTRGSEF; listed as Homo sapiens) [compound 146] | ++++ (>75% = ++++) |
| 201 (LPIARVLTV; listed as Homo sapiens) [compound 201] | ++++ (>75% = ++++) |
| 135 (MPRLLRLSL; listed as Homo sapiens) [compound 135] | +++ (>50 = +++) |
| 28 (LPAPTSLVL; listed as Homo sapiens) [compound 28] | ++++ (>75% = ++++) |
| 79 (GPASDHPSL; listed as Homo sapiens) [compound 79] | +++ (>50 = +++) |
| 172 (SAQSLHPVL; listed as Homo sapiens) [compound 172] | +++ (>50 = +++) |
| 63 (FPHMATTAF; listed as Homo sapiens) [compound 63] | +++ (>50 = +++) |
| 110 (YPSSPASAV; listed as Homo sapiens) [compound 110] | ++++ (>75% = ++++) |
| 10 (SPMEAELVRRIL; listed as Homo sapiens) [compound 10] | ++++ (>75% = ++++) |
| 203 (KPRGPIDI; listed as Homo sapiens) [compound 203] | ++ (>20% = ++) |
| 145 (VPAQRLGLLL; listed as Homo sapiens) [compound 145] | +++ (>50 = +++) |
| 78 (HPSQESPTL; listed as Homo sapiens) [compound 78] | +++ (>50 = +++) |
| 173 (VIINNPISL; listed as Homo sapiens) [compound 173] | ++ (>20% = ++) |
| 72 (APCNGNVAV; listed as Homo sapiens) [compound 72] | +++ (>50 = +++) |
| 115 (KTKSLAQQL; listed as Homo sapiens) [compound 115] | +++ (>50 = +++) |
| 13 (LPNTGRIGQL; listed as Homo sapiens) [compound 13] | +++ (>50 = +++) |

Now from value to substance:

| Peptide exchange | Substance |
| --- | --- |
| ++++ (>75% = ++++) | 327 (GPRTTQSSVL; listed as Homo sapiens) [compound 327] |
| + (>10% = +) | 373 (LPKPDLPQLI; listed as Homo sapiens) [compound 373] |
| ++++ (>75% = ++++) | 379 (GPRQVLFPL; listed as Homo sapiens) [compound 379] |
| +++ (>50 = +++) | 291 (SPSKSLEM; listed as Homo sapiens) [compound 291] |
| ++++ (>75% = ++++) | 315 (APVVFPAL; listed as Homo sapiens) [compound 315] |
| ++++ (>75% = ++++) | 251 (MPVDSFNSM; listed as Homo sapiens) [compound 251] |
| +++ (>50 = +++) | 348 (HPAPPVTSA; listed as Homo sapiens) [compound 348] |
| ++ (>20% = ++) | 244 (VPAHLVAA; listed as Homo sapiens) [compound 244] |
| +++ (>50 = +++) | 456 (VPVSHPVLTL; listed as Homo sapiens) [compound 456] |
| +++ (>50 = +++) | 316 (NPREPEKSL; listed as Homo sapiens) [compound 316] |
| ++++ (>75% = ++++) | 459 (SPAPWRPWI; listed as Homo sapiens) [compound 459] |
| ++ (>20% = ++) | 476 (EPNPVEEIF; listed as Homo sapiens) [compound 476] |
| +++ (>50 = +++) | 226 (APGGSSRSSL; listed as Homo sapiens) [compound 226] |
| ++ (>20% = ++) | 269 (FTVSSSSAM; listed as Homo sapiens) [compound 269] |
| +++ (>50 = +++) | 358 (APSMLRKNQL; listed as Homo sapiens) [compound 358] |
| +++ (>50 = +++) | 377 (SPFSKRIKL; listed as Homo sapiens) [compound 377] |
| ++++ (>75% = ++++) | 499 (QPVLPSPAC; listed as Homo sapiens) [compound 499] |
| ++++ (>75% = ++++) | 308 (RPDVVRTLL; listed as Homo sapiens) [compound 308] |
| ++++ (>75% = ++++) | 489 (WPNHIMLVL; listed as Homo sapiens) [compound 489] |
| ++++ (>75% = ++++) | 317 (MPYNSAHHCVV; listed as Homo sapiens) [compound 317] |
| +++ (>50 = +++) | 338 (MPATPSLKV; listed as Homo sapiens) [compound 338] |
| +++ (>50 = +++) | 481 (SPARALLLALA; listed as Homo sapiens) [compound 481] |
| +++ (>50 = +++) | 285 (RITWKGLLL; listed as Homo sapiens) [compound 285] |
| + (>10% = +) | 450 (SAAARALLP; listed as Homo sapiens) [compound 450] |

| Peptide exchange | Substance |
| --- | --- |
| ++++ (>75% = ++++) | 313 (VPLSSYVSI; listed as Homo sapiens) [compound 313] |
| ++++ (>75% = ++++) | 295 (HPRWIEPTVM; listed as Homo sapiens) [compound 295] |
| ++++ (>75% = ++++) | 372 (SPSSASLTL; listed as Homo sapiens) [compound 372] |
| ++++ (>75% = ++++) | 374 (KPRNMTGLDL; listed as Homo sapiens) [compound 374] |
| ++++ (>75% = ++++) | 325 (SPRSNPVRL; listed as Homo sapiens) [compound 325] |
| +++ (>50 = +++) | 289 (LPYEKVSRL; listed as Homo sapiens) [compound 289] |
| ++++ (>75% = ++++) | 280 (LPRAFLQSL; listed as Homo sapiens) [compound 280] |
| ++++ (>75% = ++++) | 290 (RPTHPLRSF; listed as Homo sapiens) [compound 290] |
| +++ (>50 = +++) | 229 (FPNAGPRHLL; listed as Homo sapiens) [compound 229] |
| ++++ (>75% = ++++) | 323 (TPHGITDIL; listed as Homo sapiens) [compound 323] |
| ++++ (>75% = ++++) | 332 (SPYAGSTAF; listed as Homo sapiens) [compound 332] |
| ++++ (>75% = ++++) | 260 (LVQSSRSEV; listed as Homo sapiens) [compound 260] |
| +++ (>50 = +++) | 242 (IPETASVVAI; listed as Homo sapiens) [compound 242] |
| ++ (>20% = ++) | 250 (APAAPAAVPS; listed as Homo sapiens) [compound 250] |
| ++++ (>75% = ++++) | 286 (APARPAAAF; listed as Homo sapiens) [compound 286] |
| ++++ (>75% = ++++) | 346 (IPMPRITWL; listed as Homo sapiens) [compound 346] |
| ++++ (>75% = ++++) | 495 (SPSYTQASL; listed as Homo sapiens) [compound 495] |
| ++++ (>75% = ++++) | 449 (RPKTSVNLISSL; listed as Homo sapiens) [compound 449] |
| ++++ (>75% = ++++) | 231 (SPITLQAL; listed as Homo sapiens) [compound 231] |
| ++++ (>75% = ++++) | 461 (MPHLGPGILL; listed as Homo sapiens) [compound 461] |
| +++ (>50 = +++) | 239 (VLPRAGGAFLM; listed as Homo sapiens) [compound 239] |
| ++ (>20% = ++) | 314 (IALMKLAGPL; listed as Homo sapiens) [compound 314] |
| ++++ (>75% = ++++) | 490 (APRGPAQGEAA; listed as Homo sapiens) [compound 490] |
